Consider three molecules from US20020068696A1 (published 2002).

One assay addresses T1, HA-TRAF3 (UniProt Q13114 1-568, limits assumed).
T1 construct: not shown: HA tag
T1 sequence (looked up): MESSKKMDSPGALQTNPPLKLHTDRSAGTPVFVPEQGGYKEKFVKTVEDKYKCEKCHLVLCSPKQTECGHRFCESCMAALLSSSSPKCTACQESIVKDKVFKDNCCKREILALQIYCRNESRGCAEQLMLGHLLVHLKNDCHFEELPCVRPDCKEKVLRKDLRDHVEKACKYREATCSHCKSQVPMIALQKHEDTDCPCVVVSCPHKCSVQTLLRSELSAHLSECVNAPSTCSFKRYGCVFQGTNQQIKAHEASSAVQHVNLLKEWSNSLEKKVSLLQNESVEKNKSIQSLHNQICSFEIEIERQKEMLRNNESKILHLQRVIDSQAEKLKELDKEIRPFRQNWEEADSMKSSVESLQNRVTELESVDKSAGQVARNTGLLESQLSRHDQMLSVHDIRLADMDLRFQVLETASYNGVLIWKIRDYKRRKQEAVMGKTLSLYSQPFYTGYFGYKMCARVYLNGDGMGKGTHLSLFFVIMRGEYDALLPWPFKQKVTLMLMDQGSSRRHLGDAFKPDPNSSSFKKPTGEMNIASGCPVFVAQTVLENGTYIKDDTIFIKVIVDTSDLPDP
The experiment in a line: co-immunoprecipitation from 293T lysates, western blot. On the technique in general: Immunoblotting shows a protein as a band on a membrane.

The target in the next assay is T2, HA-TRAF2 (UniProt Q12933 1-501, limits assumed).
T2 construct: not shown: HA tag
T2 sequence (looked up): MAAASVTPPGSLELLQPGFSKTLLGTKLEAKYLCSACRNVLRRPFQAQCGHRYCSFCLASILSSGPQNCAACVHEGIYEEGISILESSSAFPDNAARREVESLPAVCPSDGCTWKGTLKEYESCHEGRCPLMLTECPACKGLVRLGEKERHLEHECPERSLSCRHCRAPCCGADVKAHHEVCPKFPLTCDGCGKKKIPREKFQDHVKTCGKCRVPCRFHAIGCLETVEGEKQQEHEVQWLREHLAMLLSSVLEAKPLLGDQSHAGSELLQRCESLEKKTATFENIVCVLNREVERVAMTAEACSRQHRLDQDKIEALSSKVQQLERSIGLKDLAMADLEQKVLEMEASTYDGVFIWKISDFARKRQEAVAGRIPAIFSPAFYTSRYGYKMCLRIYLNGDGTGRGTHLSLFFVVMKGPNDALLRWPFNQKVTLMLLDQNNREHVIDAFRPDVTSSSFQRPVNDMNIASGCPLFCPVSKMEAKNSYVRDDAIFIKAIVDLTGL
The assay is described as above.

B1: deletion construct TRADE 1-218 (Flag-tagged) (receptor)
chain: KVTCESGDCRQQEFRDRSGNCVPCNQCGPGMELSKECGFGYGEDAQCVTCRLHRFKEDWGFQKCKPCLDCAVVNRFQKANCSATSDAICGDCLPGFYRKTKLVGFQDMECVPCGDPPPPYEPHCASKVNLVKIASTASSPRDTALAAVICSALATVLLALLILCVIYCKRQFMEKKPSWSLRSQDIQYNGSEL
notes: Putative 25-residue signal left out; not shown: Flag tag
As for B1, in the assay with HA-TRAF3, the binding result is recorded as “no binding”.

B2: Flag-tagged TRADEα (receptor)
chain: KVTCESGDCRQQEFRDRSGNCVPCNQCGPGMELSKECGFGYGEDAQCVTCRLHRFKEDWGFQKCKPCLDCAVVNRFQKANCSATSDAICGDCLPGFYRKTKLVGFQDMECVPCGDPPPPYEPHCASKVNLVKIASTASSPRDTALAAVICSALATVLLALLILCVIYCKRQFMEKKPSWSLRSQDIQYNGSELSCFDRPQLHEYAHRACCQCRRDSVQTCGPVRLLPSMCCEEACSPNPATLGCGVHSAASLQARNAGPAGEMVPTFFGSLTQSICGEFSDAWPLMQNPMGGDNISFCDSYPELTGEDIHSLNPELESSTSLDSNSSQDLVGGAVPVQSHSENFTAATDLSRYNNTLVESASTQDALTMRSQLDQESGAIIHPATQTSLQEA
notes: Full-length isoform expressed in 293T cells and tested in cell lysates by co-immunoprecipitation; Position of the Flag tag unknown (written last here only for want of information); Putative 25-residue signal left out; also called Flag tagged TRADE construct; not shown: Flag tag
Consider B2, for which, in the assay with HA-TRAF2, the binding result was “no binding”.

B3: Flag-tagged TRADEβ (receptor)
chain: KVTCETGDCRQQEFRDRSGNCVPCNQCGPGMELSKECGFGYGEDAQCVTCRLHRFKEDWGFQKCKPCLDCAVVNRFQKANCSATSDAICGDCLPGFYRKTKLVGFQDMECVPCGDPPPPYEPHCASKVNLVKIASTASSPRDTALAAVICSALATVLLALLILCVIYCKRQFMEKKPSWSLRSQDIQYNGSELSCLDRPQLHEYAHRACCQCRRDSVQTCGPVRLLPSMCCEEACSPNPATLGCGVHSAASLQARNAGPAGEMVPTFFGSLTQSICGEFSDAWPLMQNPMGGDNISFCDSYPELAGEDIHSLNPELESSTSLDSNSSQDLVGGAVPVQSHSENFTAATDLSRYNNTLVESASTQDALTMRSQLDQESGAIIHPATQTSLQVRQRLGSL
notes: Full-length isoform expressed in 293T cells and tested in cell lysates by co-immunoprecipitation; Position of the Flag tag unknown; Putative 25-residue signal left out; also called Flag tagged TRADE construct; not shown: Flag tag
As for B3, the binding result in the assay with HA-TRAF2 is “no binding”.
